# T1: recombinant murine midkine (muMK) (murine, UniProt P12025 23-140)
# T1 construct: also called murine MK; Murine MK
# T1 sequence (looked up): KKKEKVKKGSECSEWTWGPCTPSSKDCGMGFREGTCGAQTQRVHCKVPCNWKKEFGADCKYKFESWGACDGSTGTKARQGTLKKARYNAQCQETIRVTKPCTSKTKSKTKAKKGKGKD
# T2: recombinant human midkine (huMK) (human, UniProt P21741 21-143)
# T2 construct: also called human MK; Human MK
# T2 sequence (looked up): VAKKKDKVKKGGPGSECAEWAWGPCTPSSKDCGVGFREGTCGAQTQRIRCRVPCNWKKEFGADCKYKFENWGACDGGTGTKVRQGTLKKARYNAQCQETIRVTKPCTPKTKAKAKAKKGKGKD
# Assays:
# [1] = biological target: T1, recombinant murine midkine (muMK); test: ELISA by the methods of Example 2 (printed as KD)
# Procedure: (§1) The binding specificity and affinity of the humanised anti-MK antibodies to recombinant human MK (huMK) and murine MK (muMK) was assessed by ELISA. ELISA plates (Nunc Immuno MaxiSorp 96 well flat-bottom were coated with 100 uL of 2 ug/mL of either huMK or muMK in 2% BSA/PBS (overnight at room temperature). After washing, blocking (1 h at 37° C.), and washing again, the humanised anti-MK and chimeric antibodies described in Example 1 were analysed for binding to huMK or muMK at concentrations ranging between 3 μg/ml and 0.00004 μg/ml in 2% BSA/PBS (1 h at 37° C.). After washing, the binding of antibody was detected with goat anti-mouse IgG (Fab specific)-HRP conjugate (Sigma, Cat. No. A9917) and SigmaFast OPD substrate (Sigma, Cat. No. P9187). The reaction was stopped with 3 M HCl, absorbance read at 490 nm on a Dynex Technologies MRX TC II plate reader and the binding curves plotted. Binding affinity data for the humanised anti-MK antibodies to huMK and muMK are presented in Table 6 and Table 7 respectively, and in FIG. 3.
# (§2) KD values for hIP14-H5L8, hIP14-H6L3 and hIP14-H6L8 was then compared with the KD values obtained for the corresponding murine IP14 precursor antibody and the chimeric antibody using the methods described in Example 2. As is apparent from Table 7, the humanised mIP14 antibodies designated hIP14-H5L8, hIP14-H6L3, and hIP14-H6L8 were each shown to have better binding affinity than the murine IP14 precursor antibody and the chimeric antibody for huMK and muMK. Based on this finding, these candidate antibodies were produced to 100 mg scale to enable further testing in functional assays to determine biological function.
# [2] = biological target: T2, recombinant human midkine (huMK); test: ELISA by the methods of Example 2 (printed as KD)
# Procedure: as §1, §2
# [3] = biological target: T2, recombinant human midkine (huMK); test: cell-based or functional assay
# [4] = biological target: T2, recombinant human midkine (huMK); test: ELISA, plate coated with huMK
# Procedure: as §1
# [5] = biological target: T1, recombinant murine midkine (muMK); test: ELISA, plate coated with muMK
# Procedure: as §1
# [6] = biological target: T1, recombinant murine midkine (muMK); test: ELISA on plate-coated muMK, antibody titrated up to 3 µg/ml, Abs 450nm on the sheet's axis [continued), panel IP14 Hv3 Murine Midkine]
# Procedure: as §1, with “The reaction was stopped with 3 M HCl, absorbance read at 490 nm on a Dynex Technologies MRX TC II plate reader and the binding curves plotted.” left out
Binder,Kd [1],Kd [2],"% Inhibition of UMR106 cell migration, Assay 4 [3]","% Inhibition of UMR106 cell migration, Assay 5 [3]","% Inhibition of UMR106 cell migration, Assay 6 [3]",Mean % Inhibition of UMR106 cell migration [3],"Mean Cells/Field, Assay 4 (UMR106 migration, antibody 100 ug/mL, MK-17 20 µg/mL) [3]","Mean Cells/Field, Assay 5 (UMR106 migration, antibody 100 ug/mL, MK-17 20 µg/mL) [3]","Mean Cells/Field, Assay 6 (UMR106 migration, antibody 100 ug/mL, MK-17 20 µg/mL) [3]",EC50 [4],EC50 [5],binding result [6]
"murine IP14 precursor antibody (antibody, V domains shown, Murine monoclonal antibody; also called mIP14; mAb IP14) VH: QVQLQQPGAELVRPGHSVKLSCKASGQSFSSYWMNWVRQRPGQGLEWIGMIHPSDSETILNQKFKDKATLTVDISSNTAYMQLSSPTSEDSAVYFCSSWSAKRGDFWGQGTTLTVSS VL: DIVLTQSPATLSVTPGDSVNLSCRASESISNNLHWYQQKSHESPRLLIKYASQSISGIPSRFSGSGSGTDFNLSVNSVETEDFGMYFCQQSNSWPLTFGAGTKLELKR",0.166 nM,0.144 nM,6%,10%,38%,18%,45 cells/field,38 cells/field,26 cells/field,,,
"IP14-H6L8 (antibody, V domains shown, also called hIP14-H6L8; Hv6 Lv8) VH: QVQLVQSGGGLVKPGHSLRLSCAASGQSFSSYWMNWVRQAPGKGLEWIGMIHPSDSETILNQKFKDKATLSVDIAKNSAYLQMNSLRAEDTAVYYCSSWSAKRGDFWGQGTLVTVSS VL: DIVLTQSPATLSLSPGERATLSCRASESISNNLHWYQQKPHQAPRLLIYYASQSISGVPARFSGSGSGTDFTLTISSVEPEDFAVYYCQQSNSWPLTFGQGTKVEIKR",0.091 nM,0.042 nM,44%,24%,48%,38.7%,27 cells/field,32 cells/field,22 cells/field,0.042 nM,0.091 nM,
"IP14-H5L8 (antibody, V domains shown, also called hIP14-H5L8; Hv5 Lv8) VH: QVQLVQSGGGLVQPGGSLRLSCAASGQSFSSYWMNWVRQAPGQGLEWIGMIHPSDSETILNQKFKDKATLTVDISKNTAYLQMNSLRAEDTAVYYCSSWSAKRGDFWGQGTLVTVSS VL: DIVLTQSPATLSLSPGERATLSCRASESISNNLHWYQQKPHQAPRLLIYYASQSISGVPARFSGSGSGTDFTLTISSVEPEDFAVYYCQQSNSWPLTFGQGTKVEIKR",0.05 nM,0.06 nM,60%,31%,31%,40.7%,19 cells/field,29 cells/field,29 cells/field,0.06 nM,0.05 nM,
"IP14-H6L3 (antibody, V domains shown, also called hIP14-H6L3; Hv6 Lv3) VH: QVQLVQSGGGLVKPGHSLRLSCAASGQSFSSYWMNWVRQAPGKGLEWIGMIHPSDSETILNQKFKDKATLSVDIAKNSAYLQMNSLRAEDTAVYYCSSWSAKRGDFWGQGTLVTVSS VL: DIVLTQSPATLSLSPGERATLSCRASESISNNLHWYQQKPGQAPRLLIYYASQSISGIPARFSGSGPGTDFTLTISSLEPEDFAVYYCQQSNSWPLTFGGGTKLEIKR",0.048 nM,0.07 nM,48%,40%,45%,44.3%,25 cells/field,25 cells/field,23 cells/field,0.07 nM,0.048 nM,
"IP14-H3L3 (antibody, V domains shown, also called Hv3 Lv3) VH: QVQLVQSGAEVKKPGASVKVSCKASGQSFSSYWMNWVRQAPGQGLEWMGMIHPSDSETILNQKFKDKVTMTRDTSTSTVYMELSSLRSEDTAVYYCARWSAKRGDFWGQGTLVTVSS VL: DIVLTQSPATLSLSPGERATLSCRASESISNNLHWYQQKPGQAPRLLIYYASQSISGIPARFSGSGPGTDFTLTISSLEPEDFAVYYCQQSNSWPLTFGGGTKLEIKR",,,,,,,,,,5.79 nM,,binds
"IP14-H3L6 (antibody, V domains shown, also called Hv3 Lv6) VH: QVQLVQSGAEVKKPGASVKVSCKASGQSFSSYWMNWVRQAPGQGLEWMGMIHPSDSETILNQKFKDKVTMTRDTSTSTVYMELSSLRSEDTAVYYCARWSAKRGDFWGQGTLVTVSS VL: EIVLTQSPSTLSASVGDRVNITCRASESISNNLHWYQQKPHKAPKLLIYYASQSISGVPSRFSGSGSGTEFNLTISSVQPDDFATYYCQQSNSWPLTFGQGTKVEIKR",,,,,,,,,,5.7 nM,,binds
"mouse-human chimeric IP14 antibody (antibody, V domains shown, also called chimeric antibody; Hv0 Lv0) VH: QVQLQQPGAELVRPGHSVKLSCKASGQSFSSYWMNWVRQRPGQGLEWIGMIHPSDSETILNQKFKDKATLTVDISSNTAYMQLSSPTSEDSAVYFCSSWSAKRGDFWGQGTTLTVSS VL: DIVLTQSPATLSVTPGDSVNLSCRASESISNNLHWYQQKSHESPRLLIKYASQSISGIPSRFSGSGSGTDFNLSVNSVETEDFGMYFCQQSNSWPLTFGAGTKLELKR",0.13 nM,0.104 nM,,,,,,,,0.104 nM,0.13 nM,
"IP14-H6L7 (antibody, V domains shown, also called Hv6 Lv7) VH: QVQLVQSGGGLVKPGHSLRLSCAASGQSFSSYWMNWVRQAPGKGLEWIGMIHPSDSETILNQKFKDKATLSVDIAKNSAYLQMNSLRAEDTAVYYCSSWSAKRGDFWGQGTLVTVSS VL: DIVLTQSPATLSLSPGERANLSCRASESISNNLHWYQQKPHQAPRLLIYYASQSISGVPARFSGSGSGTDFNLTISSVEPEDFAVYYCQQSNSWPLTFGQGTKVEIKR",,,,,,,,,,0.068 nM,0.051 nM,
